Laboratory results taken from the supplement of paper PMC10065799, “High-throughput profiling of sequence recognition by tyrosine kinases and SH2 domains using bacterial peptide display” (eLife, 2023).

tested on: c-Src; experiment: phosphorylation enrichment, bacterial display (enrichment ratio); higher = better substrate or ligand; peptides without Tyr show the background
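For SH2 binding enrichment of the phosphorylated peptide, bacterial display in this document: peptide library displayed on the E. coli surface as eCPX fusions, selected cells deep-sequenced, score is each peptide's frequency after selection divided by its frequency in the input.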
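For phosphorylation enrichment, bacterial display in this document: 11-residue human phosphosite peptides and single-mutation variants displayed on the E. coli surface, counted by deep sequencing, each peptide's frequency after selection divided by its frequency in the unselected input library; frequency after pTyr selection over input frequency; kinase dosed for 20-30% of maximal phosphorylation in three min.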

| Sequence | phosphorylation enrichment |
| --- | --- |
| CLMILHRLKER [PTPRR_Y249_Y249H] | 0.395 |
| FLGRNYLETLM [DUS3L_Y610_D609N_YF] | 0.292 |
| EDSEFYKAFEE [CASQ2_Y179_YF] | 0.567 |
| RVKPIYFHTQG [AR_Y916_K911R] | 0.952 |
| FSALDYKIFFF [WDPCP_Y210_L205F_YF] | 0.67 |
| MHLRQYELLGG [GNAS_Y391] | 0.516 |
| TLQTMYGCDVG [HLA-B_Y123_S121T] | 0.68 |
| FPKARYRWLVL [APTX_Y214_H215R_YF] | 0.436 |
| QYNIQYSSSAA [ERBB2IP_Y981] | 0.749 |
| FFDANCDGKEF [MAPRE2_Y162_Y162C_YF] | 0.537 |
| SCTFTYLLGDR [ETHE1_Y38] | 0.515 |
| LGLTVYADCLA [ABCA4_Y2063] | 0.473 |
| IWIFHYAKGQP [MPZ_Y82_S78W] | 0.577 |
| FMRGMYFRMKD [PLA2G6_Y541_YF] | 0.417 |
| YLENYYDLEKD [MMP3_Y42_K45E] | 2.29 |
| MNLLGYRHVRS [CHST4_Y359] | 0.405 |
| FPAVGYHKPHI [IDS_Y225_L221P] | 0.41 |

| Sequence | phosphorylation enrichment |
| --- | --- |
| IFGEEYEEQPR [ZMYM2_Y1033_V1028I] | 0.591 |
| GIVKAYYVRAR [AIPL1_Y267] | 0.415 |
| SRPTQYSSFSC [SPEM2_Y104] | 0.7 |
| DQVEQCKKELE [LMNA_Y259_Y259C] | 0.562 |
| FSTSPYLLEAA [BRIP1_Y921_YF] | 1.57 |
| EATKGYPDDPT [G6PD_Y322_L323P] | 0.493 |
| QSQQAYQEAFE [YWHAZ_Y149] | 0.578 |
| HNQDDYSFPSR [LDLR_Y845_G844D_YF] | 0.633 |
| CTTIHYNYMGN [TP53_Y234_C238G] | 0.425 |
| FISVGYVDGTQ [HLA-B_Y51_D54G] | 0.398 |
| HHTDEYEFDEL [TGM1_Y134_YF] | 0.745 |
| PTTKTYFPHFY [HBA1_Y43_D48Y] | 0.56 |
| MKNQKYGRIIM [HSD17B4_Y143_K140N] | 0.301 |
| HNLFSYPTKHE [MYO3A_Y1396_YF] | 0.531 |
| PSSRDYKHNIK [PIGN_Y227] | 0.417 |
| ETDPRYFDEEF [AKT1_Y437_T435P] | 0.563 |

target: Grb2 SH2 (UniProt P62993); experiment: SH2 binding enrichment of the phosphorylated peptide, bacterial display (enrichment ratio); higher = better substrate or ligand; peptides without Tyr show the background

| Sequence | SH2 binding enrichment |
| --- | --- |
| RVKPIYFHTQG [AR_Y916_K911R] | 2.11 |
| MHLRQYELLGG [GNAS_Y391] | 0.868 |
| TLQTMYGCDVG [HLA-B_Y123_S121T] | 0.854 |
| FPKARYRWLVL [APTX_Y214_H215R_YF] | 0.909 |
| QYNIQYSSSAA [ERBB2IP_Y981] | 0.978 |
| FMRGMYFRMKD [PLA2G6_Y541_YF] | 0.897 |
| YLENYYDLEKD [MMP3_Y42_K45E] | 0.769 |
| MNLLGYRHVRS [CHST4_Y359] | 0.855 |
| FPAVGYHKPHI [IDS_Y225_L221P] | 0.823 |
| GIVKAYYVRAR [AIPL1_Y267] | 0.858 |
| SRPTQYSSFSC [SPEM2_Y104] | 2.26 |
| QSQQAYQEAFE [YWHAZ_Y149] | 0.873 |
| HNQDDYSFPSR [LDLR_Y845_G844D_YF] | 0.723 |
| PTTKTYFPHFY [HBA1_Y43_D48Y] | 0.771 |
| MKNQKYGRIIM [HSD17B4_Y143_K140N] | 1.49 |
| PSSRDYKHNIK [PIGN_Y227] | 0.895 |

The remaining lines, values ahead:

| SH2 binding enrichment | Sequence |
| --- | --- |
| 1.04 | CLMILHRLKER [PTPRR_Y249_Y249H] |
| 1.02 | FLGRNYLETLM [DUS3L_Y610_D609N_YF] |
| 0.767 | EDSEFYKAFEE [CASQ2_Y179_YF] |
| 0.731 | FSALDYKIFFF [WDPCP_Y210_L205F_YF] |
| 0.687 | FFDANCDGKEF [MAPRE2_Y162_Y162C_YF] |
| 0.83 | SCTFTYLLGDR [ETHE1_Y38] |
| 0.918 | LGLTVYADCLA [ABCA4_Y2063] |
| 1.18 | IWIFHYAKGQP [MPZ_Y82_S78W] |
| 0.819 | IFGEEYEEQPR [ZMYM2_Y1033_V1028I] |
| 0.79 | DQVEQCKKELE [LMNA_Y259_Y259C] |
| 0.954 | FSTSPYLLEAA [BRIP1_Y921_YF] |
| 0.765 | EATKGYPDDPT [G6PD_Y322_L323P] |
| 0.926 | CTTIHYNYMGN [TP53_Y234_C238G] |
| 0.781 | FISVGYVDGTQ [HLA-B_Y51_D54G] |
| 1.45 | HHTDEYEFDEL [TGM1_Y134_YF] |
| 0.576 | HNLFSYPTKHE [MYO3A_Y1396_YF] |
| 0.946 | ETDPRYFDEEF [AKT1_Y437_T435P] |

target: SHP2-C SH2; experiment: as above

| Sequence | SH2 binding enrichment |
| --- | --- |
| RVKPIYFHTQG [AR_Y916_K911R] | 1.67 |
| MHLRQYELLGG [GNAS_Y391] | 0.689 |
| TLQTMYGCDVG [HLA-B_Y123_S121T] | 0.729 |
| FPKARYRWLVL [APTX_Y214_H215R_YF] | 0.568 |
| QYNIQYSSSAA [ERBB2IP_Y981] | 0.679 |
| FMRGMYFRMKD [PLA2G6_Y541_YF] | 1.17 |
| YLENYYDLEKD [MMP3_Y42_K45E] | 0.557 |
| MNLLGYRHVRS [CHST4_Y359] | 0.748 |
| FPAVGYHKPHI [IDS_Y225_L221P] | 0.826 |
| GIVKAYYVRAR [AIPL1_Y267] | 0.502 |
| SRPTQYSSFSC [SPEM2_Y104] | 2.11 |
| QSQQAYQEAFE [YWHAZ_Y149] | 0.526 |
| HNQDDYSFPSR [LDLR_Y845_G844D_YF] | 0.8 |
| PTTKTYFPHFY [HBA1_Y43_D48Y] | 1.25 |
| MKNQKYGRIIM [HSD17B4_Y143_K140N] | 1.64 |
| PSSRDYKHNIK [PIGN_Y227] | 0.774 |

Second part, the sequence after the results:

| SH2 binding enrichment | Sequence |
| --- | --- |
| 1.35 | CLMILHRLKER [PTPRR_Y249_Y249H] |
| 1.09 | FLGRNYLETLM [DUS3L_Y610_D609N_YF] |
| 0.671 | EDSEFYKAFEE [CASQ2_Y179_YF] |
| 0.401 | FSALDYKIFFF [WDPCP_Y210_L205F_YF] |
| 3.8 | FFDANCDGKEF [MAPRE2_Y162_Y162C_YF] |
| 0.729 | SCTFTYLLGDR [ETHE1_Y38] |
| 0.553 | LGLTVYADCLA [ABCA4_Y2063] |
| 1.55 | IWIFHYAKGQP [MPZ_Y82_S78W] |
| 0.77 | IFGEEYEEQPR [ZMYM2_Y1033_V1028I] |
| 0.937 | DQVEQCKKELE [LMNA_Y259_Y259C] |
| 1.17 | FSTSPYLLEAA [BRIP1_Y921_YF] |
| 0.538 | EATKGYPDDPT [G6PD_Y322_L323P] |
| 0.842 | CTTIHYNYMGN [TP53_Y234_C238G] |
| 0.753 | FISVGYVDGTQ [HLA-B_Y51_D54G] |
| 1.73 | HHTDEYEFDEL [TGM1_Y134_YF] |
| 0.523 | HNLFSYPTKHE [MYO3A_Y1396_YF] |
| 0.501 | ETDPRYFDEEF [AKT1_Y437_T435P] |

target: c-Src SH2; experiment: as above

| Sequence | SH2 binding enrichment |
| --- | --- |
| RVKPIYFHTQG [AR_Y916_K911R] | 1.53 |
| MHLRQYELLGG [GNAS_Y391] | 7.91 |
| TLQTMYGCDVG [HLA-B_Y123_S121T] | 0.545 |
| FPKARYRWLVL [APTX_Y214_H215R_YF] | 0.575 |
| QYNIQYSSSAA [ERBB2IP_Y981] | 0.59 |
| FMRGMYFRMKD [PLA2G6_Y541_YF] | 0.767 |
| YLENYYDLEKD [MMP3_Y42_K45E] | 0.985 |
| MNLLGYRHVRS [CHST4_Y359] | 0.545 |
| FPAVGYHKPHI [IDS_Y225_L221P] | 0.91 |
| GIVKAYYVRAR [AIPL1_Y267] | 0.464 |
| SRPTQYSSFSC [SPEM2_Y104] | 0.857 |
| QSQQAYQEAFE [YWHAZ_Y149] | 1.32 |
| HNQDDYSFPSR [LDLR_Y845_G844D_YF] | 0.678 |
| PTTKTYFPHFY [HBA1_Y43_D48Y] | 0.73 |
| MKNQKYGRIIM [HSD17B4_Y143_K140N] | 1.05 |
| PSSRDYKHNIK [PIGN_Y227] | 0.495 |

Further lines, results first:

| SH2 binding enrichment | Sequence |
| --- | --- |
| 0.799 | CLMILHRLKER [PTPRR_Y249_Y249H] |
| 0.605 | FLGRNYLETLM [DUS3L_Y610_D609N_YF] |
| 0.506 | EDSEFYKAFEE [CASQ2_Y179_YF] |
| 0.449 | FSALDYKIFFF [WDPCP_Y210_L205F_YF] |
| 0.54 | FFDANCDGKEF [MAPRE2_Y162_Y162C_YF] |
| 0.588 | SCTFTYLLGDR [ETHE1_Y38] |
| 0.564 | LGLTVYADCLA [ABCA4_Y2063] |
| 0.795 | IWIFHYAKGQP [MPZ_Y82_S78W] |
| 0.561 | IFGEEYEEQPR [ZMYM2_Y1033_V1028I] |
| 0.524 | DQVEQCKKELE [LMNA_Y259_Y259C] |
| 0.577 | FSTSPYLLEAA [BRIP1_Y921_YF] |
| 0.485 | EATKGYPDDPT [G6PD_Y322_L323P] |
| 1.3 | CTTIHYNYMGN [TP53_Y234_C238G] |
| 0.527 | FISVGYVDGTQ [HLA-B_Y51_D54G] |
| 0.43 | HHTDEYEFDEL [TGM1_Y134_YF] |
| 0.597 | HNLFSYPTKHE [MYO3A_Y1396_YF] |
| 0.507 | ETDPRYFDEEF [AKT1_Y437_T435P] |
